# Measured values published in the supplement of paper PMC10126150.
# ± gives the standard deviation of the averaged measurements.
# System: ATP
# Test: switch fluorescence ratio, 500 uM ATP over buffer (Cy3 cluster intensity, sum of 5 cycles each) (fold (ratio)); higher = stronger signal-on switching upon ATP binding; sequences stand for … in TCGTCGGCAGCGTCAGATGTGTATAAGAGACAGTTTTTTTTTTTTTTTTTTTTTTTTT…TC
# Settings: aptamer strand: ATP DNA aptamer (quencher-CACCTGGGGGAGTATTGCGGAGGAAGG + anchor), 100 nM annealed; ATP concentration: 500 uM
# Procedure, shortened: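 The quencher-labelled ATP aptamer, at 100 nM, was annealed to Cy3-labelled switching-strand clusters on a modified Illumina MiSeq flow-cell. The clusters were imaged in selection buffer, then after 15 min with 500 uM ATP at 22 °C, and this buffer/ATP cycle ran five times with NaOH stripping and re-annealing between runs. Per-cluster fluorescence ratios, summed target-cycle over summed buffer-cycle Cy3 intensity, were averaged per switch-domain sequence. Clusters outside 100-1000 RFU were excluded.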
# 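Also: ATP exposure 15 min at 22 °C before imaging.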
row,Sequence,switch fluorescence ratio
1,ATCTGAGAGG,1.003 ± 0.0031
2,GTCTATCTCT,1.013 ± 0.0093
3,TAGATAGAGG,0.961 ± 0.016
4,GTGAAACGGT,1.03 ± 0.043
5,ATTTGGTAAA,0.9859 ± 0.009
6,ATACTTGTAT,1.0048 ± 0.00054
7,GAAGGGGGAC,1.01 ± 0.046
8,GTGGTACGGA,1.0044 ± 0.00029
9,AAAGCTGGAG,1.03 ± 0.021
10,TGTTTGTGTA,1.03 ± 0.022
11,GGCTCTGATG,1.01 ± 0.011
12,ATGTAGTGCG,0.99 ± 0.021
13,CGCGAAAATG,1.02 ± 0.022
14,AGCTTTTGGG,0.979 ± 0.071
15,GACTTTTTTC,0.9748 ± 0.0053
16,TGTTGGCTTT,1.06 ± 0.022
17,CGGTTCGGCG,0.987 ± 0.0099
18,TAGGTGGGCT,1.011 ± 0.0064
19,AACGCGTGGG,1.01 ± 0.003
20,CAGTTCAGTA,0.992 ± 0.03
21,CGAAAAGAAT,1.02 ± 0.029
22,GCGTTTGAGG,0.981 ± 0.017
23,CCAGCGGTTG,1.025 ± 0.004
24,TAGAGGGGGG,0.985 ± 0.038
25,ATAGACGCTA,1.12 ± 0.017

row,Sequence,switch fluorescence ratio
1,AAAACGGCTC,1.01 ± 0.0097
2,TTGTGATTAG,0.982 ± 0.032
3,CGGCAGGCGG,1.05 ± 0.044
4,TGGCTGCCGT,0.988 ± 0.032
5,GGGGTACCCA,0.993 ± 0.018
6,AACCCAACGA,1.27 ± 0.025
7,TTTGGTGTTA,1 ± 0.026
8,TGCTGCCGGT,1.02 ± 0.096
9,AGATCTTGTG,1 ± 0.022
10,GGTGTAAAAG,1.014 ± 0.0036
11,GGAGGAGTGT,0.959 ± 0.037
12,CGGGGGACAG,1.03 ± 0.066
13,GTTGATGCCG,1.001 ± 0.0012
14,GAAATATGTT,0.999 ± 0.014
15,GGGTGTTAAC,0.981 ± 0.057
16,CAGGAGGGCA,1.042 ± 0.0049
17,CATTTCAGTG,0.988 ± 0.025
18,GTCCGAGAAT,0.986 ± 0.064
19,ATTGCGGTCA,1.01 ± 0.048
20,GAACCTGGAT,1.16 ± 0.038
21,AACTGTCAGA,0.9903 ± 0.0036
22,CGGAGATAGT,1.02 ± 0.028
23,TATCTATTTT,0.964 ± 0.011
24,GGGAAAATA,0.969 ± 0.018
25,GGAATAGAAA,0.994 ± 0.033

row,Sequence,switch fluorescence ratio
1,TGTGATAGTG,0.999 ± 0.053
2,AGGGGGGGG,1.03 ± 0.085
3,GGTATTGGCA,0.996 ± 0.022
4,AAATGTTTGG,1.01 ± 0.017
5,TTCGGCTGGG,0.98 ± 0.034
6,CGGATGTTTT,0.984 ± 0.02
7,GCCCGATCAC,1.151 ± 0.0086
8,CAGTCTAAGA,1.03 ± 0.056
9,GATTCTCGGG,1.01 ± 0.016
10,CAGCTACGTG,1.0258 ± 0.00037
11,AAGGGGGGGA,1.01 ± 0.046
12,TAAACCGATG,1.21 ± 0.048
13,GGTTAACTGT,1.01 ± 0.026
14,TGGTTATTTT,0.998 ± 0.036
15,GTAGCGCGTC,1.03 ± 0.026
16,GTAGCGATAG,4.13 ± 2.2
17,CTCTGGCGTT,1.51 ± 0.66
18,ATATCTGGCA,1.02 ± 0.032
19,CGAGGCGCG,0.9537 ± 0.008
20,CGGGAACTCT,1.013 ± 0.0054
21,AGAGGGTCTC,0.973 ± 0.058
22,AGGGTTAGCA,1.02 ± 0.021
23,AATTTTTAAC,1 ± 0.028
24,GCCAGTATCC,0.997 ± 0.014
25,TGATTAGTCG,1.01 ± 0.023

row,Sequence,switch fluorescence ratio
1,TGGTATGTCA,0.9913 ± 0.0059
2,CTGCAGCGTC,1.29 ± 0.053
3,ACGGGTTCGT,1.01 ± 0.012
4,ATATCAATC,1.02 ± 0.034
5,TTACCCAGAG,1.1 ± 0.064
6,AGGGGGTCGA,1.01 ± 0.035
7,GGGGTTCAGA,0.9846 ± 0.0041
8,CGGAGTGTGT,1.01 ± 0.016
9,TCACCAGGTA,2.163 ± 0.021
10,ATTTGACTCT,0.986 ± 0.021
11,ATAATGTACA,1.04 ± 0.011
12,CAGCTTTAAT,1.03 ± 0.02
13,TTTCCTGGCG,1.024 ± 0.0089
14,ATATTTTACG,1.02 ± 0.06
15,AGAAAGGCGG,0.9715 ± 0.0027
16,AATACAGTGA,0.9986 ± 0.00012
17,ACTCTTATCG,1.02 ± 0.054
18,ATTTTTGGTT,1.01 ± 0.042
19,AGGGGAGTAT,1.45 ± 0.66
20,TTATATTGTT,0.984 ± 0.017
21,TGGAGGAGCG,0.955 ± 0.036
22,GGCCCGTCGG,1.03 ± 0.0047
23,GTTTTGTAAA,0.975 ± 0.026
24,AAATTCGAAT,1.02 ± 0.041
25,GGGGTTGGAG,0.979 ± 0.022

row,Sequence,switch fluorescence ratio
1,GTTCTTGATG,0.967 ± 0.015
2,GACGGGGACA,1.06 ± 0.023
3,GCAGTGGGTG,0.998 ± 0.012
4,AGCCATTTGT,1.015 ± 0.0063
5,AAATATGTGG,0.989 ± 0.02
6,TTTGGCTCTG,1.03 ± 0.025
7,CTATATGAAG,0.9802 ± 0.0067
8,ACGCGGTTTT,1.02 ± 0.027
9,GGGGGGGACG,0.962 ± 0.055
10,GCATGCGCGC,0.984 ± 0.012
11,ATGTTTCAGT,0.9982 ± 0.0021
12,ATCAAGTGAG,0.998 ± 0.015
13,TGAAACTATT,1.01 ± 0.027
14,GAGGGGAGGA,1.04 ± 0.014
15,GGTGTTGGAT,1.01 ± 0.002
16,TAAGGGGCCA,1.024 ± 0.0088
17,AAGGGTGCGT,1.01 ± 0.044
18,TTCAGGCTTT,1.01 ± 0.011
19,TATTGCGGCA,1.011 ± 0.0051
20,TTATTCCATA,0.98429 ± 0.00091
21,TTATGAGCAA,1.8 ± 0.096
22,GTTGAGCGGG,0.9786 ± 0.0069
23,GGGTAAGAAA,0.9865 ± 0.0041
24,TGTGGAAAGG,1 ± 0.014
25,ACTTTATTTC,1.011 ± 0.006

row,Sequence,switch fluorescence ratio
1,ATAACCGTGG,1.05 ± 0.074
2,TGATCACACG,1.024 ± 0.01
3,TATTCAAGTT,1 ± 0.024
4,TCTGTTTGTA,0.9816 ± 0.0075
5,TGAGATAAAG,0.967 ± 0.001
6,TTTACCCGGC,1.1 ± 0.13
7,ATATTTTAGC,1.03 ± 0.074
8,GCTAAAGGGA,1.03 ± 0.042
9,TATTCTCATT,0.977 ± 0.023
10,ATTATGATTG,0.98 ± 0.028
11,GCTCGGGTGT,1.15 ± 0.33
12,TTTTTGTCAC,1.03 ± 0.038
13,GTTTCCAGTT,1.03 ± 0.023
14,TGGAATGCGC,1.24 ± 0.36
15,GGGTAGGTG,1.13 ± 0.039
16,TGATTGGGTG,1.01 ± 0.054
17,CATATATCAT,1.008 ± 0.0095
18,GCTAGATGTA,1.02 ± 0.015
19,CCGGGGGATT,1.4 ± 0.49
20,ATAGCTCTTA,0.9764 ± 0.0074
21,TTCAATGCTC,2.17 ± 0.82
22,TTTTGATTAG,1.006 ± 0.0015
23,TTTGGTGATA,0.943 ± 0.01
24,TGGGATTTGA,0.993 ± 0.023
25,CTTGGGTTGG,0.997 ± 0.028

row,Sequence,switch fluorescence ratio
1,CCGAAAATAG,3.58 ± 0.48
2,TGAGCGGTCA,0.99 ± 0.015
3,AGTGTCTATT,0.981 ± 0.0055
4,GGGTGATCGT,0.997 ± 0.013
5,TCAGGGGGGT,1.11 ± 0.3
6,GGGATGAGTT,0.98 ± 0.041
7,TAATCGTGGA,1.03 ± 0.022
8,TACTCGGGGT,1.004 ± 0.0064
9,CATATGTGCG,0.992 ± 0.023
10,AAACGGTTTC,0.993 ± 0.036
11,GTTGGGGGAG,0.978 ± 0.02
12,TGTTTAAGTT,1.02 ± 0.023
13,TTTAAAGATT,1.01 ± 0.037
14,GGCGTCTTTG,1.019 ± 0.0091
15,AAGACTTGTG,0.981 ± 0.019
16,TTGTGCCGGG,0.9391 ± 0.0045
17,GAGGGGAAGA,0.998 ± 0.031
18,AAGGAGGGTG,1.02 ± 0.019
19,TTAAGAAG,0.996 ± 0.015
20,GTTAACTTTG,1.0027 ± 0.00076
21,ACAGCTGAGC,0.999 ± 0.0079
22,GGATTCCGGC,0.981 ± 0.053
23,TCGGTCTAAC,1 ± 0.015
24,AGGTTCAAAG,0.959 ± 0.037
25,TTGCTTGTAT,0.9992 ± 0.0098

row,Sequence,switch fluorescence ratio
1,TGGGAAAAGG,1.16 ± 0.31
2,ATCGAGGGGT,0.955 ± 0.037
3,AAACGTTAGC,1.03 ± 0.052
4,GATGATATGG,0.9852 ± 0.0039
5,ACGGCTCTGG,1.015 ± 0.0057
6,GTAAGAGCGG,0.9983 ± 0.0065
7,CTATCCTCTT,0.972 ± 0.01
8,ATCTATCGTG,0.991 ± 0.021
9,TTTTAGGAGA,1.02 ± 0.026
10,TTTGGCCCCG,0.9612 ± 0.0093
11,CATGATTAAT,0.962 ± 0.033
12,TTGTAGGGGT,1.02 ± 0.052
13,GTGCCTAGTG,1.017 ± 0.01
14,CGGGACGTGT,0.969 ± 0.021
15,TTTTTAGCAT,1.04 ± 0.084
16,GGATTTAATA,1.02 ± 0.03
17,GTTGGAAGAT,1.03 ± 0.015
18,CATGTGCGTG,1 ± 0.022
19,TGGCATCGGG,1.01 ± 0.042
20,AGGGGGCAGC,1.01 ± 0.015
21,AGCGCGGGGG,1.002 ± 0.006
22,AGGTAACTGT,1.01 ± 0.051
23,AGCGTCAGTA,0.999 ± 0.014
24,CGGCTAGTCT,0.993 ± 0.13
25,ATTATTTTTT,1.02 ± 0.046
